A protein production outcome set (Wang et al. 2014)

assay: label from the status in PepcDB records

Row | Sequence | protein production
1 | MGHHHHHHSHMAFVTRQFMRSVSSSSTASASAKKIIVKHVTVIGGGLMGAGIAQVAAATGHTVVLVDQTEDILAKSKKGIEESLRKVAKKKFAENPKAGDEFVEKTLSTIATSTDAASVVHSTDLVVEAIVENLKVKNELFKRLDKFAAEHTIFASNTSSLQITSIANATTRQDRFAGLHFFNPVPVMKLVEVIKTPMTSQKTFESLVDFSKALGKHPVSCKDTPGFIVNRLLVPYLMEAIRLYERGDASKEDIDTAMKLGAGYPMGPFELLDYVGLDTTKFIVDGWHEMDAENPLHQPSPSLNKLVAENKFGKKTGEGFYKYK | not failed
2 | MGHHHHHHSHMAQPLACARGRSQRLVCDPKAASALPDLAPDVFVLRVRLEETGEMFRVANCRGDMTVRELKEELDLMVGIPFNLQRLQYLDEGVLMDDTTLKFHDVVPGGIISLCIWHHDGWTEL | failed
3 | MGHHHHHHSHMDALSPSPAIPSNTDYPGPHSFDVSFQQSSTAKSATWTYSTELKKLYCQIAKTCPIQIKVMTPPPQGAVIRAMPVYKKAEHVTEVVKRCPNHELSREFNEGQIAPPSHLIRVEGNSHAQYVEDPITGRQSVLVPYEPPQVGTEFTTVLYNFMCNSSCVGGMNRRPILIIVTLETRDGQVLGRRCFEARICACPGRDRKADEDSIRKQQVSDSTKNGDGTKRPFRQNTHGIQM | failed
4 | MGHHHHHHSHMDNHNPMKDIEVTSSPDDSIGCLSFSPPTLPGNFLIAGSWANDVRCWEVQDSGQTIPKAQQMHTGPVLDVCWSDDGSKVFTASCDKTAKMWDLSSNQAIQIAQHDAPVKTIHWIKAPNYSCVMTGSWDKTLKFWDTRSSNPMMVLQLPERCYCADVIYPMAVVATAERGLIVYQLENQPSEFRRIESPLKHQHRCVAIFKDKQNKPTGFALGSIEGRVAIHYINPPNPAKDNFTFKCHRSNGTNTSAPQDIYAVNGIAFHPVHGTLATVGSDGRFSFWDKDARTKLKTSEQLDQPISACCFNHNGNIFAYASSYDWSKGHEFYNP | failed
5 | MGHHHHHHSHMDSHDLQRFLSDFRDLMSWINGIRGLVSSDELAKDVTGAEALLERHQEHRTEIDARAGTFQAFEQFGQQLLAHGHYASPEIKQKLDILDQERADLEKAWVQRRMMLDQCLELQLFHRDCEQAENWMAAREAFLNTEDKGDSLDSVEALIKKHEDFDKAINVQEEKIAALQAFADQLIAAGHYAKGDISSRRNEVLDRWRRLKAQMIEKR | not failed
6 | MGHHHHHHSHMGKGTFVYRTTITSPHEEVWAFFSSPTNLQTLTKIPKVVLDSTSETTQGSEIEMKLFVLGIPFQWKAYIEAYNPPFSFTDVAIKMPFPIVYWRHTHRFTTEGERTVMIDEIQYEIKMANKLVIFFLRRMFRARESALHRYFQS | not failed
7 | MGHHHHHHSHMKEDQKNKIPEDILKQLLSVDPETVYASGYASWQEGDYSRAVIDFSWLVMAQPWSWRAHIALAGTWMMLKEYTTAINFYGHALMLDASHPEPVYQTGVCLKMMGEPGLAREAFQTAIKMSYADASWSEIRQNAQKMVDTLIA | failed
8 | MGHHHHHHSHMKLVTRSCDPGEKLDSKIGVLIGKGLHEFDSLKDPEVNEFRRKMRKFSEEKILSLVGLSWMDWLKQTYPPEHEPSIPENLEDKLYGGKLIVAVHFENCQDVFSFQVSPNMNPIKVNELAIQKRLTIHGKEDEVSPYDYVLQVSGRVEYVFGDHPLIQFQYIRNCVMNRALPHFILVECCKIKK | failed
9 | MGHHHHHHSHMKMEHQNKRSPLHAAAEAGHVDICHMLVQAGANIDTCSEDQRTPLMEAAENNHLEAVKYLIKAGALVDPKDAEGSTCLHLAAKKGHYEVVQYLLSNGQMDVNCQDDGGWTPMIWATEYKHVDLVKLLLSKGSDINIRDNEENICLHWAAFSGCVDIAEILLAAKCDLHAVNIHGDSPLHIAARENRYDCVVLFLSRDSDVTLKNKEGETPLQCASLNSQV | failed
10 | MGHHHHHHSHMLVDNLYRVVSNQKDAAVIRVHLEVNASHEIFKGHFPEVPVLPGVCMVQCIKELIEESLLVKTQIDKGDMIKFLSMLNPVESNSIQAEISIKEKTETRIVFQATLKNEDRFLLKYSGSLVVLN | failed
11 | MGHHHHHHSHMPRGPAGEAGASPPVRRVRVVKQEAGGLGISIKGGRENRMPILISKIFPGLAADQSRALRLGDAILSVNGTDLRQATHDQAVQALKRAGKEVLLEVKFIREVT | failed
12 | MGHHHHHHSHMSSRGHSTLPRTLMAPRMISEGDIGGIAQITSSLFLGRGSVASNRHLLQARGITCIVNATIEIPNFNWPQFEYVKVPLADMPHAPIGLYFDTVADKIHSVSRKHGATLVHCAAGVSRSATLCIAYLMKFHNVCLLEAYNWVKARRPVIRPNVGFWRQLIDYERQLFGKSTVKMVQTPYGIVPDVYEKESRHLMPYWGI | failed
